The numbers were not newly measured in paper PMC2773841, which cites them from elsewhere.

pKd: −log10 of the molar value.

Broadly, the pKd is the Kd on a negative log10 scale, so that one unit is a factor of ten.

The target in the data set is DnaK (Escherichia coli) (UniProt P0A6Y8).
DnaK (Escherichia coli), sequence (P0A6Y8 2-638): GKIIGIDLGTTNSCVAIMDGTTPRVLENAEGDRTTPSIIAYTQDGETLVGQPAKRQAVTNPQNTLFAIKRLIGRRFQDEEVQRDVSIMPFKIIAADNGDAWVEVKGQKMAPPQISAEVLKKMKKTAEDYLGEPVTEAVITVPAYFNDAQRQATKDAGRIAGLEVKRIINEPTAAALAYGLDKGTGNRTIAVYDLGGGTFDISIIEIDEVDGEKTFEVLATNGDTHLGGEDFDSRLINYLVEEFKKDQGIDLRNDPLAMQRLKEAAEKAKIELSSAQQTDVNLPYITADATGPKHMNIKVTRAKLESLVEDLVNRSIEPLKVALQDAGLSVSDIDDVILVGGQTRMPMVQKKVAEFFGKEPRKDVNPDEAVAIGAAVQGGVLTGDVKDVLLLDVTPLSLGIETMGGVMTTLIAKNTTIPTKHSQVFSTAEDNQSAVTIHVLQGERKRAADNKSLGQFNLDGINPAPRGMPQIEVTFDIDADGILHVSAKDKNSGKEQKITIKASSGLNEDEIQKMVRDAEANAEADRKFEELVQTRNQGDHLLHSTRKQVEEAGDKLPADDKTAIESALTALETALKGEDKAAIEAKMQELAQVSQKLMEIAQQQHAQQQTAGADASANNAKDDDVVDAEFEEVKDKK

GrpE, sequence (P09372 whole entry): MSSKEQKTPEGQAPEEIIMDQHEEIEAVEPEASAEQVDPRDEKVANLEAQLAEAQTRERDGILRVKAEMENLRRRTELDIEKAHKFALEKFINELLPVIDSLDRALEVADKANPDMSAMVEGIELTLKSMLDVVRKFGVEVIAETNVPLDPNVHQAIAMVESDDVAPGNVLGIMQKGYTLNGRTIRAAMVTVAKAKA

For the substance GrpE (from UniProt P09372), the pKd was 9.00.
